These results are taken from paper PMC6403371.

Experiment [1] concerns the target cHSP27 C137S (human) (UniProt P04792). In words: 15N CPMG relaxation dispersion NMR; cHSP27 (1 mM, reduced with 5 mM BME, 14.1 T only) or C137S (1 mM and 0.3 mM; 25, 30, 35 °C; 11.7 and 14.1 T) in NMR buffer pH 7; global two-state fit; dimer to monomers.
Experiment [2] has the same target. In words: NMR (1H-15N HSQC, G116 monomer and dimer peak intensities) against pH; [U-15N]-C137S at 250 μM in NMR buffer at pH 7, 25 °C, and separate samples at pH 6.5, 6.0 and 5.0, 1 bar; similar pH titrations on oxidised cHSP27; the rows are for pH 5 / low pH; dimer to monomers.
Experiment [3] shares this target. The experiment in a line: NMR titration; intensities of the G116 monomer and dimer resonances against protein concentration, pH 7, 1 bar; dimer to monomers.
The target is the same in experiment [4]. The experiment in a line: high-pressure NMR (1H-15N HSQC); 200 μM [U-15N]-C137S in baroresistant buffer (100 mM Tris-HCl, 100 mM phosphate) pH 7, 25 °C, 14.1 T, 1 to 2500 bar; three-state model (dimer, monomer, unfolded); similar pressure titrations on oxidised cHSP27.
In experiment [5] the target is cHSP27(H124K/C137S) (human) (UniProt P04792). In words: NMR titration; intensities of the G116 monomer and dimer resonances against protein concentration, pH 7, 1 bar; dimer to monomers.

In the case of “cHSP27 C137S (from UniProt P04792 84-171) (domain or fragment)”, the Kd with cHSP27 C137S (human) [1] was 0.5 µM; in the experiment with cHSP27 C137S (human) [2], 5000 µM; in the experiment with cHSP27 C137S (human) [3] it was 0.7 µM. The substance further yielded a population of the monomer at 1 mM in the experiment with cHSP27 C137S (human) [1] of 1.5%. In addition, the fold increase of Kd at 1600 bar (against 1 bar) with cHSP27 C137S (human) [4] was determined as 10 fold.
In experiment [5], “cHSP27(H124K/C137S) (from UniProt P04792 84-171) (domain or fragment)” showed a Kd of 1100 µM. This lies in the millimolar range.

What is called Kd is the constant that tells how readily two partners part at equilibrium. A high value points to weaker binding.
